According to patent US20080241130A1:

Molecular target: mouse IL-17F/IL-17A heterodimer (mouse)
Test: cell-based or functional assay

mouse IL-17F/IL-17A heterodimer (mouse), sequence (Q62386 26-158, chain 1 of 2): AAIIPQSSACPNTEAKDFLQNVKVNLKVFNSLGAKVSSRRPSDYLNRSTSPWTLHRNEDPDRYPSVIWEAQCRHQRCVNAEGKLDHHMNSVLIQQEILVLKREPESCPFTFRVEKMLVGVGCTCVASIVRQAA
mouse IL-17F/IL-17A heterodimer (mouse), sequence (Q7TNI7 29-161, chain 2 of 2, further chain): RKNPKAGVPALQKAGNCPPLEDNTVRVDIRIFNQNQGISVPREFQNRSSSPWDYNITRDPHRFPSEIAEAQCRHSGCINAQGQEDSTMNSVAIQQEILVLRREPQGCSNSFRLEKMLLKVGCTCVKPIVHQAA

- decrease in CXCL1 production by MLE-12 cells induced by 200 ng/ml mIL-17F/IL-17A with 80 µg/ml antibody: 85%
Substance: anti-mouse IL-17A antibody 50104 (R&D Systems)
